# US20230203202A1 (DRAGONFLY THERAPEUTICS, published 2023)
# Residue numbers refer to the chain shown, from its start.
# B1: AB1017 (antibody, V domains shown)
# VH: EVQLVESGGGLVKPGGSLRLSCEASGFTFSDYGMHWVRQAPGKGLEWLAYISSGSSTFYYADTVKGRFTISRDNAKNSLYLQMNSLRAEDTAVYYCGSSQSYYRGTMDYWGQGTTVTVSS
# VL: DIQLTQSPSSLSASVGDRVTITCRASQGVSTSTYTYMHWFQQKPGKAPKLLIKFASNLESGVPSRFSGSGSGTDFTLTISSLQPEDFATYYCQHSWEIPWTFGGGTKVEIK
# notes: member of the group m33
# B2: AB1018 (antibody, V domains shown)
# VH: B1 VH
# VL: B1 VL with M37L
# notes: member of the group m33
# B3: AB1019 (antibody, V domains shown)
# VH: B1 VH
# VL: B1 VL with M37V
# notes: member of the group m33
# B4: AB1878-TriNKET® (bispecific antibody, human IgG1, kappa)
# chain: DIQLTQSPSSLSASVGDRVTITCRASQSVTTSNYNYMHWFQQKPGKAPKLLIKFASNLESGVPSRFSGSGSGTDFTLTISSLQPEDFATYYCQHSWEIPWTFGCGTKVEIKGGGGSGGGGSGGGGSGGGGSEVQLVESGGGLVKPGGSLRLSCAASRFTFSDFGMHWVRQAPGKCLEWVSYISSGSSTIYYADTVKGRFTISRDNAKNSLYLQMNSLRAEDTAVYYCASSQSYYRGTLDYWGQGTTVTVSSGSDKTHTCPPCPAPELLGGPSVFLFPPKPKDTLMISRTPEVTCVVVDVSHEDPEVKFNWYVDGVEVHNAKTKPREEQYNSTYRVVSVLTVLHQDWLNGKEYKCKVSNKALPAPIEKTISKAKGQPREPRVYTLPPCRDELTKNQVSLTCLVKGFYPSDIAVEWESNGQPENNYKTTPPVLVSDGSFTLYSKLTVDKSRWQQGNVFSCSVMHEALHNHYTQKSLSLSPG
# heavy: EVQLVESGGGLVKPGGSLRLSCAASGFTFSSYSMNWVRQAPGKGLEWVSSISSSSSYIYYADSVKGRFTISRDNAKNSLYLQMNSLRAEDTAVYYCARGAPIGAAAGWFDPWGQGTLVTVSSASTKGPSVFPLAPSSKSTSGGTAALGCLVKDYFPEPVTVSWNSGALTSGVHTFPAVLQSSGLYSLSSVVTVPSSSLGTQTYICNVNHKPSNTKVDKKVEPKSCDKTHTCPPCPAPELLGGPSVFLFPPKPKDTLMISRTPEVTCVVVDVSHEDPEVKFNWYVDGVEVHNAKTKPREEQYNSTYRVVSVLTVLHQDWLNGKEYKCKVSNKALPAPIEKTISKAKGQPREPQVCTLPPSRDELTENQVSLTCLVKGFYPSDIAVEWESNGQPENNYKTTPPVLDSDGSFFLYSWLTVDKSRWQQGNVFSCSVMHEALHNHYTQKSLSLSPG
# light: DIQMTQSPSSVSASVGDRVTITCRASQGISSWLAWYQQKPGKAPKLLIYAASSLQSGVPSRFSGSGSGTDFTLTISSLQPEDFATYYCQQGVSFPRTFGGGTKVEIKRTVAAPSVFIFPPSDEQLKSGTASVVCLLNNFYPREAKVQWKVDNALQSGNSQESVTEQDSKDSTYSLSSTLTLSKADYEKHKVYACEVTHQGLSSPVTKSFNRGEC
# notes: F3′ format; also called AB1878-VL-VH TriNKET®; 10F10-IGHV3-21*05 BM1
# B5: AB1887-TriNKET® (bispecific antibody, human IgG1, kappa)
# chain: B4 chain with V179I, S180A
# heavy: B4 heavy
# light: B4 light
# notes: F3′ format; also called AB1887-VL-VH TriNKET®; 10F10-IGHV3-21*05 BM2
# B6: AB1882-TriNKET® (bispecific antibody, human IgG1, kappa)
# chain: B4 chain with K144Q
# heavy: B4 heavy
# light: B4 light
# notes: F3′ format; also called AB1882-VL-VH TriNKET®; 10F10-IGHV3-48*01 BM1
# B7: AB1884-TriNKET® (bispecific antibody, human IgG1, kappa)
# chain: B4 chain with K144Q, V179I, S180A
# heavy: B4 heavy
# light: B4 light
# notes: F3′ format; also called AB1884-VL-VH TriNKET®; 10F10-IGHV3-48*01 BM2
# B8: AB1881-TriNKET® (bispecific antibody, human IgG1, kappa)
# chain: B4 chain with V136L, K144Q, V179I, S180A, S209T
# heavy: B4 heavy
# light: B4 light
# notes: F3′ format; also called AB1881-VL-VH TriNKET®; 10F10-IGHV3-23*03 BM2
# B9: AB1892-TriNKET® (bispecific antibody, human IgG1, kappa)
# chain: B4 chain with V136L, K144Q, A206S, S209T
# heavy: B4 heavy
# light: B4 light
# notes: F3′ format; also called AB1892-VL-VH TriNKET®; 10F10-IGHV3-23*03 BM1
# B10: AB1885-TriNKET® (bispecific antibody, human IgG1, kappa)
# chain: B4 chain with E132Q, V179I, S180A
# heavy: B4 heavy
# light: B4 light
# notes: F3′ format; also called AB1885-VL-VH TriNKET®; 10F10-IGHV3-11*01 BM2
# B11: AB1886-TriNKET® (bispecific antibody, human IgG1, kappa)
# chain: B4 chain with V168I
# heavy: B4 heavy
# light: B4 light
# notes: F3′ format; also called AB1886-VL-VH TriNKET®; 10F10-IGHV3-11*01 BM1
# B12: AB1890-TriNKET® (bispecific antibody, human IgG1, kappa)
# chain: DIQLTQSPSSLSASVGDRVTITCRASQGVSTSTYTYMHWFQQKPGKAPKLLIKFASNLESGVPSRFSGSGSGTDFTLTISSLQPEDFATYYCQHSWEIPWTFGCGTKVEIKGGGGSGGGGSGGGGSGGGGSEVQLLESGGGLVQPGGSLRLSCAASGFTFSDYGMHWVRQAPGKCLEWVSYISSGSSTFYYADTVKGRFTISRDNSKNTLYLQMNSLRAEDTAVYYCGSSQSYYRGTMDYWGQGTTVTVSSGSDKTHTCPPCPAPELLGGPSVFLFPPKPKDTLMISRTPEVTCVVVDVSHEDPEVKFNWYVDGVEVHNAKTKPREEQYNSTYRVVSVLTVLHQDWLNGKEYKCKVSNKALPAPIEKTISKAKGQPREPRVYTLPPCRDELTKNQVSLTCLVKGFYPSDIAVEWESNGQPENNYKTTPPVLVSDGSFTLYSKLTVDKSRWQQGNVFSCSVMHEALHNHYTQKSLSLSPG
# heavy: B4 heavy
# light: B4 light
# notes: F3′ format; also called AB1890-VL-VH TriNKET®; 11F09-IGHV3-23*03 BM1-YB
# B13: AB1893-TriNKET® (bispecific antibody, human IgG1, kappa)
# chain: B12 chain with V179L, S180A, S206A
# heavy: B4 heavy
# light: B4 light
# notes: F3′ format; also called AB1893-VL-VH TriNKET®; 11F09-IGHV3-23*03 BM2-YB
# B14: AB1883-TriNKET® (bispecific antibody, human IgG1, kappa)
# chain: B12 chain with E132Q, L136V, Q144K, V179L, S180A, S206A, T209S
# heavy: B4 heavy
# light: B4 light
# notes: F3′ format; also called AB1883-VL-VH TriNKET®; 11F09-IGHV3-11*01 BM2-YB
# B15: AB1879-TriNKET® (bispecific antibody, human IgG1, kappa)
# chain: B12 chain with L136V, S206A, T209S
# heavy: B4 heavy
# light: B4 light
# notes: F3′ format; also called AB1879-VL-VH TriNKET®; 11F09-IGHV3-48*01 BM1-YB
# B16: AB1889-TriNKET® (bispecific antibody, human IgG1, kappa)
# chain: B12 chain with L136V, V179L, S180A, S206A, T209S
# heavy: B4 heavy
# light: B4 light
# notes: F3′ format; also called AB1889-VL-VH TriNKET®; 11F09-IGHV3-48*01 BM2-YB
# B17: AB1880-TriNKET® (bispecific antibody, human IgG1, kappa)
# chain: B12 chain with L136V, Q144K, A154E, V179L, S180A, S206A, T209S
# heavy: B4 heavy
# light: B4 light
# notes: F3′ format; also called AB1880-VL-VH TriNKET®; 11F09-IGHV3-21*05 BM2-YB
# B18: AB1888-TriNKET® (bispecific antibody, human IgG1, kappa)
# chain: B12 chain with L136V, Q144K, S206A, T209S
# heavy: B4 heavy
# light: B4 light
# notes: F3′ format; also called AB1888-VL-VH TriNKET®; 11F09-IGHV3-21*05 BM1-YB
# B19: AB1891-TriNKET® (bispecific antibody, human IgG1, kappa)
# chain: B12 chain with L136V, Q144K, V168I, S206A, T209S
# heavy: B4 heavy
# light: B4 light
# notes: F3′ format; also called AB1891-VL-VH TriNKET®; 11F09-IGHV3-11*01 BM1-YB
# B20: AB1011 (antibody, V domains shown)
# VH: B1 VH with E23A, L48V, A49S
# VL: B1 VL
# notes: member of the group m33
# B21: AB1015 (antibody, V domains shown)
# VH: B1 VH with E23A, L48V, A49S, M107I
# VL: B1 VL with M37L
# notes: member of the group m33
# B22: AB1014 (antibody, V domains shown)
# VH: B1 VH with E23A, L48V, A49S, M107I
# VL: B1 VL
# notes: member of the group m33
# B23: AB1013 (antibody, V domains shown)
# VH: B1 VH with E23A, L48V, A49S
# VL: B1 VL with M37V
# notes: member of the group m33
# B24: AB1012 (antibody, V domains shown)
# VH: B1 VH with E23A, L48V, A49S
# VL: B1 VL with M37L
# notes: member of the group m33
# B25: AB1016 (antibody, V domains shown)
# VH: B1 VH with E23A, L48V, A49S, M107I
# VL: B1 VL with M37V
# notes: member of the group m33
# Target: T1, human 5T4 on the cell surface (human, UniProt Q13641 32-420)
# T1 construct: whole, on cells; also called h5T4; TPBG
# T1 sequence (looked up): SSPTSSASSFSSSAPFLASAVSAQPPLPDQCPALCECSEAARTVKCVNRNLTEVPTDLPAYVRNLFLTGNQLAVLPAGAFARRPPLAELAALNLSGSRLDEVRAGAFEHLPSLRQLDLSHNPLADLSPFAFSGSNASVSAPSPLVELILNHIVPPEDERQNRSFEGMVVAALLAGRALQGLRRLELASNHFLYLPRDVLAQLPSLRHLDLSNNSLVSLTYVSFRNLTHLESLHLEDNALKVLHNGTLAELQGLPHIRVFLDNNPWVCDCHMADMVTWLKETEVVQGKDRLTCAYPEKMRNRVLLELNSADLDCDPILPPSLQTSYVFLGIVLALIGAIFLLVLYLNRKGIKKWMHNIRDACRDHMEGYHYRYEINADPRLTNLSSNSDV
# Test: flow cytometry on H1975 cells, FOB
row,Binder,binding result
1,B1,binds
2,B2,binds
3,B3,binds

# Target: T1, human 5T4 on the cell surface
# Test: cell binding assay on 5T4-expressing tumor cells (cell line not given)
Binder,EC50 [nM],Max Fold Over Background (FOB) [fold over background]
B4,10.1,71.6
B5,10.2,75
B6,8.55,71.8
B7,6.08,70.5
B8,7.28,72.5
B9,4.21,60
B10,5.37,68
B11,5.65,73.5

# Target: T1, human 5T4 on the cell surface
# Test: as above
# Remark: another data set of the same source
Binder,EC50 [nM],Max Fold Over Background (FOB) [fold over background]
B12,5.62,65.9
B13,15.9,70.8
B14,6.02,69.4
B15,9.18,62.9
B16,20.7,11.7
B17,21.7,48.5
B18,18.5,22.1
B19,50.5,40.1

# Target: T1, human 5T4 on the cell surface
# Test: flow cytometry on H1975 cells, FOB
# Remark: another data set of the same source
row,Binder,binding result
1,B20,binds
2,B21,binds
3,B22,binds
4,B23,binds
5,B24,binds
6,B25,binds
